Source: patent US20050069541A1, “Composition for and treatment of demyelinating diseases and paralysis by administration of remyelinating agents” (priority 2003, published 2005)

Key:
[1] = target: β2 integrin (human) (human) (UniProt P05107)
[2] = target: L-selectin (mouse) (mouse) (UniProt P18337)
CD2 (rat) (rat) = CD2 (rat) (rat) (UniProt P08921)
Thy 1.1 (rat) (rat) = Thy 1.1 (rat) (rat) (UniProt P01830)
CD4 (rat) (rat) = CD4 (rat) (rat) (UniProt P05540)
Mac-1 (human) (human) = Mac-1 (human) (human) (UniProt P11215)
[3] = target: β1 integrin (human) (human) (UniProt P05556)
[4] = target: β1 integrin (human) (human) (UniProt P05556); remark: listed apart in the source
[5] = target: α4 integrin (human) (human) (UniProt P13612)
[6] = target: α4 integrin (mouse) (mouse) (UniProt Q00651)
[7] = target: α6 integrin (human) (human) (UniProt P23229)
α4 integrin = α4 integrin (Homo sapiens, UniProt P05556+P13612); experiment: Inhibition of cell adhesion to VCAM; assay type: cell-based, human and guinea pig; settings: 100% serum; read-out: IC50 for inhibition of cell adhesion to high density VCAM-1 in the presence of 100% serum
[8] = test system: EAE in female Hartley guinea pigs; settings: listed as N-[N-(3-pyridinesulfonyl)-L-3,3-dimethyl-4-thiaprolyl]-O-[1-methylpiperzain-4-yl
[9] = test system: brain and spinal cord of EAE guinea pigs; experiment: Chronic EAE: histology and blinded pathological scoring of brain and spinal cord sections (H-E, SCR); assay type: in vivo, guinea pig; settings: versus saline; listed as N-[N-(3-pyridinesulfonyl)-L-3,3-dimethyl-4-thiaprolyl]-O-[1-methylpiperzain-4-yl
Experimental: Animal Sacrifice and Histological Analysis. Untreated, chronic EAE animals (n=5) were sacrificed on day 40, as well as non-EAE controls (n=5). Following each 10-day treatment interval, 5 animals from each group were sacrificed (0.25 mL sodium pentobarbital), blood samples were collected for FACS analysis (see below), and the brain and spinal cord dissected and sectioned. Three spinal sections were used, corresponding to lumbar, thoracic and cervical regions of the cord. The brain was cut into five transverse sections. The first three proximal sections were combined in one block, and the last two distal sections in another. Tissues were fixed in 10% formalin and embedded in paraffin. […] sections were stained with hematoxylin-eosin (H-E) or solochrome-R-cyanlin (SCR) and evaluated by a blinded observer in each of four categories: (1) meningeal inflammation, (2) perivascular infiltration, (3) encephalitis or (4) myelitis and demyelination (Table 6). The combined pathological score represents the total score (out of a potential 20) from all 5 CNS sections in each animal.

[10] = test system: infiltrating cells in spinal cord; experiment: Chronic EAE: mean cell counts in spinal cord (H-E sections, 0.12 mm^2 fields); assay type: in vivo, guinea pig; settings: listed as N-[N-(3-pyridinesulfonyl)-L-3,3-dimethyl-4-thiaprolyl]-O-[1-methylpiperzain-4-yl
Experimental: To quantify the abnormalities observed in the spinal cord, sections stained with H-E were divided into 12 representative pie-shaped areas. In each area, the number of cells within a 0.12 mm^2 field of view was counted using Sigma Scan Pro image analysis software (SPSS Inc.), and the combined mean number of cells in all 12 areas was calculated for the whole spinal cord (36 fields of view per animal). Note that as all cell nuclei were counted, the number of cells may include neurons and glial cells in addition to infiltrates.

[11] = test system: spinal cord lesions of paralyzed EAE guinea pigs; experiment: Example 2: spontaneous remyelination in chronic EAE (SCR, toluidine blue, EM, lesion area analysis, motor function); assay type: in vivo, guinea pig
IL-2, IL-10, MCP-1 RNA = experiment: Chronic EAE: quantitative RT-PCR of spinal cord; assay type: in vivo, guinea pig; settings: 10 days after withdrawal; listed as N-[N-(3-pyridinesulfonyl)-L-3,3-dimethyl-4-thiaprolyl]-O-[1-methylpiperzain-4-yl
Experimental: Quantitative Reverse Transcription-PCR: IL-2, IL-10, MCP-1. RNA was isolated from 30 mg of frozen guinea pig spinal cord using the S.N.A.P.™ (simple nucleic acid preparation) total RNA Isolation Kit (Invitrogen) according to manufacturer's instructions, modified to include a second DNAse treatment step followed by an additional purification over the S.N.A.P. column.
Primer/probe sequences and concentrations for IL-2, IL-10, and MCP-1 are given in Table 7, as well as the standard RNA used for each gene. RT-PCR was carried out in triplicate using the ABI PRISM® 7700 Sequence Detection System. 50 μl reactions contained 10 to 800 ng of total RNA and primers and probes at the concentrations indicated above in reaction buffer consisting of 6.67% glycerol (Amresco); 5.5 mM MgCl; 300 μM DATP, dCTP, dGTP, and dUTP; 100 nM probe; 1.25 unit of AmpliTaq Gold® DNA Polymerase (Applied Biosystems); 1× TaqMan® Buffer A (TaqMan® PCR Core reagents kit, Applied Biosystems), 20 units of RNase Inhibitor (Roche); 1.25 unit of murine leukemia virus (MuLV) Reverse Transcriptase (Applied Biosystems). Reverse-transcription of RNA was carried out at 48° C. for 30 min., followed by a 10 min. denaturing step at 95° C. PCR was carried out by 40 thermo-cycles consisting of 95° C. for 15 seconds followed by 60° C. for 1 minute. Each plate included a standard curve using the standard RNA listed in Table 7 and two additional control samples: 1) a positive control RNA sample used on all plates, 2) a non-template control (NTC).
The correlation coefficients of the standard curves were greater than 0.990 for all data shown. The coefficients of variation for sample triplicates were less than 0.2. Since the RNA used for the standard curve is a heterogeneous mix of RNA containing a constant but unknown amount of the target message, the numbers calculated are relative.

[12] = target: monocyte/T cell surface antigen (rat) (rat)
[13] = target: α4 integrin (human) (human) (UniProt P13612); remark: listed apart in the source
[14] = target: α4 integrin (human) (human) (UniProt P13612); remark: listed apart in the source
[15] = target: α4 integrin (human) (human) (UniProt P13612); remark: listed apart in the source
[16] = target: α4 integrin (human) (human) (UniProt P13612); remark: listed apart in the source
CD45 (rat) (rat) = CD45 (rat) (rat) (UniProt P04157)
human lymphocytes = settings: cited from earlier work
VLA-4 = target: T1, VLA-4 (Homo sapiens, UniProt P05556+P13612); settings: cited from earlier work
T1 construct: endogenous in cells; host or cells: Jurkat cells

[17] = target: α4 integrin (human) (human) (UniProt P13612); remark: listed apart in the source

Molecule: TS1/18 (antibody)
- Relative Binding to EAE Vessels (% of control) [1]: 98 % of control

Molecule: Cc1ccc(S(=O)(=O)N2CCC[C@H]2C(=O)N[C@@H](Cc2ccc(OC(=O)N3CCN(CCO)CC3)cc2)C(=O)OC(C)(C)C)cc1
- melting point: 158 to 160 °C

Molecule: MEL-14 (antibody)
- Relative Binding to EAE Vessels (% of Control), mouse lymphocytes [2]: 92 % of Control

Molecule: OX-34 (antibody)
- Relative Binding to EAE Vessels (% of Control), rat lymphocytes (CD2 (rat) (rat)): 100 % of Control

Molecule: OX-7 (antibody)
- Relative Binding to EAE Vessels (% of Control), rat lymphocytes (Thy 1.1 (rat) (rat)): 87 % of Control

Molecule: OX-35 (antibody)
- Relative Binding to EAE Vessels (% of Control), rat lymphocytes (CD4 (rat) (rat)): 107 % of Control

Molecule: LM2/1 (antibody)
- Relative Binding to EAE Vessels (% of control) (Mac-1 (human) (human)): 107 % of control

Molecule: AIIB2 (antibody)
- Relative Binding to EAE Vessels (% of control) [3]: 8 % of control
- Relative Binding to EAE Vessels (% of Control), human lymphocytes [4]: 7 % of Control

Molecule: P4G9 (antibody)
- Relative Binding to EAE Vessels (% of control) [5]: 151 % of control

Molecule: R1-2 (antibody)
- Relative Binding to EAE Vessels (% of Control), mouse lymphocytes [6]: 43 % of Control

Molecule: GoH3 (antibody)
- Relative Binding to EAE Vessels (% of control) [7]: 88 % of control

Molecule: CC(C)OC(=O)[C@H](Cc1ccc(OC(=O)N2CCN(C)CC2)cc1)NC(=O)[C@H]1N(S(=O)(=O)c2cccnc2)CSC1(C)C [Example 381, N-[N-(3-pyridinesulfonyl)-L-3,3-dimethyl-4-thiaprolyl]-O-[1-methylpiperazin-4-ylcarbonyl]-L-tyrosine isopropyl ester]
- IC50 (α4 integrin): 1 to 10 nM
- mean clinical score day 70-80 after withdrawal (30 days treatment, 10 days off) versus continuous treatment ([8]; n=5, p<0.05 Mann Whitney): significantly higher
- escape from treatment ([8]; up to 40 days of treatment): no escape from treatment
- adverse side effects during prolonged administration ([8]; up to 40 days, 30 mg/kg 2x/day s.c., guinea pig, 30 mg/kg): no adverse side effects
- spinal cord histology after 20 days of treatment (day 60) [9]: much smaller area of demyelination
- spinal cord histology after 40 days of treatment (day 80) [9]: almost no meningeal and perivascular inflammation
- cell number in spinal cord versus saline-treated animals ([10]; after 10, 20, 30 or 40 days, p<0.001 two-way ANOVA): fewer cells
- mean cell count after removal of compound for 10 days versus continuous treatment ([10]; p<0.05): significantly increased
- SCR-stained spinal cord lesions after 20 days of treatment ([11]; 20 days, listed as N-[N-(3-pyridinesulfonyl)-L-3,3-dimethyl-4-thiaprolyl]-O-[1-methylpiperzain-4-yl): lesions with a diffuse blue stain covering the plaque
- SCR-stained spinal cord lesions after 40 days of treatment ([11]; 40 days, listed as N-[N-(3-pyridinesulfonyl)-L-3,3-dimethyl-4-thiaprolyl]-O-[1-methylpiperzain-4-yl): majority of lesions showed clear myelin pallor
- percentage of remyelination (mean percent of lesion area with myelin pallor) ([11]; after 20, 30 or 40 days of therapy): 50%
- semithin and EM sections of lesions ([11]; day 30 of treatment, listed as N-[N-(3-pyridinesulfonyl)-L-3,3-dimethyl-4-thiaprolyl]-O-[1-methylpiperzain-4-yl): multiple layers of thin myelin wrappings around large diameter axons indicative of remyelination
- incidence of remyelination (lesions with myelin pallor) versus saline ([11]; time-dependent): increased the incidence of remyelination
- cytokine RNA after withdrawal of compound (IL-2, IL-10, MCP-1 RNA): rose to levels comparable to those in saline-treated animals

Molecule: HP1/7 (antibody)
- Relative Binding to EAE Vessels (% of control) [5]: 338 % of control

Molecule: OX-44 (antibody)
- Relative Binding to EAE Vessels (% of Control), rat lymphocytes [12]: 102 % of Control

Molecule: HP2/1 (antibody)
- Jurkat binding to FN-coated plate (% inhibition) [13]: 47 % inhibition
- Relative Binding to EAE Vessels (% of control) [5]: 3 % of control
- Relative Binding to EAE Vessels (% of Control), rat lymphocytes (α4 integrin (rat) (rat)): 18 % of Control
- Relative Binding to EAE Vessels (% of Control), human lymphocytes [14]: 0 % of Control
- % Input Binding Jurkat to TNFα-stimulated rat brain EC clone [15]: 6 % input
- % Input Binding Ramos to VCAM-1 transfected L cells [16]: 0 % input

Molecule: OX-52 (antibody)
- Relative Binding to EAE Vessels (% of Control), rat lymphocytes (LFA-1 (rat) (rat)): 87 % of Control

Molecule: OX-1 (antibody)
- Relative Binding to EAE Vessels (% of Control), rat lymphocytes (CD45 (rat) (rat)): 90 % of Control

B1: TY21.6 (antibody, V domains shown)
VH: EVQLQQSGAELVKPGASVKLSCTASGFNIKDTYIHCVKQRPEQGLEWIGRIDPANGYTKYDPKFQGKATITADTSSNTAYLQLSSLTSEDTAVYFCAREGYYGNYGVYAMDYWGQGTSVTVSS
VL: DIQMTQSPSSLSASLGGKVTITCKTSQDINKYMAWYQHKPGKRPRLLIHYTSALQPGIPSRFSGSGSGRDYSFNISNLEPEDIATYYCLQYDNLWTFGGGTKLEIK
- human lymphocyte binding to TNF-stimulated rat brain cell cultures (human lymphocytes): inhibit human lymphocyte binding
- binding affinity for VLA-4 (VLA-4): about 10^9 M^−1
- Jurkat binding to FN-coated plate (% inhibition) [13]: 45 % inhibition
- % Input Binding Jurkat to TNFα-stimulated rat brain EC clone [15]: 8 % input
- % Input Binding Ramos to VCAM-1 transfected L cells [16]: 1 % input
- Binding of U937 cells to inflamed vessels in sections of EAE brain [17]: 0
